pKd: −log10 of the molar value.

Experimental findings from PMC4253602 (Molecular oncology, 2014) are described below.

Holding throughout (assay): SPR
Background: In SPR one partner is held on a chip, and binding of the other changes the refractive index at the surface.

For experiment [1], the target named is ARN20-HY (biotinylated peptide) (human).
The target in experiment [2] is C320-WY (biotinylated peptide).
For experiment [3], the target named is C320-YY (biotinylated peptide).
Experiment [4] addresses ARN20-FY (biotinylated peptide) (human).
The target in experiment [5] is ARN20-WY (biotinylated peptide) (human).
The target of experiment [6] is C320-HY (biotinylated peptide).
Experiment [7] addresses ARN20-LY (biotinylated peptide) (human).
The next experiment concerns the target C320-LY (Biotin-C320).

As to “wild-type AR-DBD-LBD (domain or fragment)”, the negative logarithm of the Kd (pKd) in experiment [1] is 3.85; in experiment [2], 6.85; in experiment [3], 5.42; in experiment [4], 7.42; in experiment [5], 6.30; in experiment [6], 4.42. For the same substance, the figures for the pKd (in experiment [7]; with C320-LY (Biotin-C320)) were 7.00 and 7.52, respectively.

The term pKd denotes −log10 of the Kd, conventionally taken in molar units.
